{
  "source": "paper PMC2654521",
  "origin": "cited, not measured here",
  "key": {"[1]": {"target": "N-type calcium channel (Rattus norvegicus) (UniProt Q02294)", "sequence (Q02294 whole entry)": "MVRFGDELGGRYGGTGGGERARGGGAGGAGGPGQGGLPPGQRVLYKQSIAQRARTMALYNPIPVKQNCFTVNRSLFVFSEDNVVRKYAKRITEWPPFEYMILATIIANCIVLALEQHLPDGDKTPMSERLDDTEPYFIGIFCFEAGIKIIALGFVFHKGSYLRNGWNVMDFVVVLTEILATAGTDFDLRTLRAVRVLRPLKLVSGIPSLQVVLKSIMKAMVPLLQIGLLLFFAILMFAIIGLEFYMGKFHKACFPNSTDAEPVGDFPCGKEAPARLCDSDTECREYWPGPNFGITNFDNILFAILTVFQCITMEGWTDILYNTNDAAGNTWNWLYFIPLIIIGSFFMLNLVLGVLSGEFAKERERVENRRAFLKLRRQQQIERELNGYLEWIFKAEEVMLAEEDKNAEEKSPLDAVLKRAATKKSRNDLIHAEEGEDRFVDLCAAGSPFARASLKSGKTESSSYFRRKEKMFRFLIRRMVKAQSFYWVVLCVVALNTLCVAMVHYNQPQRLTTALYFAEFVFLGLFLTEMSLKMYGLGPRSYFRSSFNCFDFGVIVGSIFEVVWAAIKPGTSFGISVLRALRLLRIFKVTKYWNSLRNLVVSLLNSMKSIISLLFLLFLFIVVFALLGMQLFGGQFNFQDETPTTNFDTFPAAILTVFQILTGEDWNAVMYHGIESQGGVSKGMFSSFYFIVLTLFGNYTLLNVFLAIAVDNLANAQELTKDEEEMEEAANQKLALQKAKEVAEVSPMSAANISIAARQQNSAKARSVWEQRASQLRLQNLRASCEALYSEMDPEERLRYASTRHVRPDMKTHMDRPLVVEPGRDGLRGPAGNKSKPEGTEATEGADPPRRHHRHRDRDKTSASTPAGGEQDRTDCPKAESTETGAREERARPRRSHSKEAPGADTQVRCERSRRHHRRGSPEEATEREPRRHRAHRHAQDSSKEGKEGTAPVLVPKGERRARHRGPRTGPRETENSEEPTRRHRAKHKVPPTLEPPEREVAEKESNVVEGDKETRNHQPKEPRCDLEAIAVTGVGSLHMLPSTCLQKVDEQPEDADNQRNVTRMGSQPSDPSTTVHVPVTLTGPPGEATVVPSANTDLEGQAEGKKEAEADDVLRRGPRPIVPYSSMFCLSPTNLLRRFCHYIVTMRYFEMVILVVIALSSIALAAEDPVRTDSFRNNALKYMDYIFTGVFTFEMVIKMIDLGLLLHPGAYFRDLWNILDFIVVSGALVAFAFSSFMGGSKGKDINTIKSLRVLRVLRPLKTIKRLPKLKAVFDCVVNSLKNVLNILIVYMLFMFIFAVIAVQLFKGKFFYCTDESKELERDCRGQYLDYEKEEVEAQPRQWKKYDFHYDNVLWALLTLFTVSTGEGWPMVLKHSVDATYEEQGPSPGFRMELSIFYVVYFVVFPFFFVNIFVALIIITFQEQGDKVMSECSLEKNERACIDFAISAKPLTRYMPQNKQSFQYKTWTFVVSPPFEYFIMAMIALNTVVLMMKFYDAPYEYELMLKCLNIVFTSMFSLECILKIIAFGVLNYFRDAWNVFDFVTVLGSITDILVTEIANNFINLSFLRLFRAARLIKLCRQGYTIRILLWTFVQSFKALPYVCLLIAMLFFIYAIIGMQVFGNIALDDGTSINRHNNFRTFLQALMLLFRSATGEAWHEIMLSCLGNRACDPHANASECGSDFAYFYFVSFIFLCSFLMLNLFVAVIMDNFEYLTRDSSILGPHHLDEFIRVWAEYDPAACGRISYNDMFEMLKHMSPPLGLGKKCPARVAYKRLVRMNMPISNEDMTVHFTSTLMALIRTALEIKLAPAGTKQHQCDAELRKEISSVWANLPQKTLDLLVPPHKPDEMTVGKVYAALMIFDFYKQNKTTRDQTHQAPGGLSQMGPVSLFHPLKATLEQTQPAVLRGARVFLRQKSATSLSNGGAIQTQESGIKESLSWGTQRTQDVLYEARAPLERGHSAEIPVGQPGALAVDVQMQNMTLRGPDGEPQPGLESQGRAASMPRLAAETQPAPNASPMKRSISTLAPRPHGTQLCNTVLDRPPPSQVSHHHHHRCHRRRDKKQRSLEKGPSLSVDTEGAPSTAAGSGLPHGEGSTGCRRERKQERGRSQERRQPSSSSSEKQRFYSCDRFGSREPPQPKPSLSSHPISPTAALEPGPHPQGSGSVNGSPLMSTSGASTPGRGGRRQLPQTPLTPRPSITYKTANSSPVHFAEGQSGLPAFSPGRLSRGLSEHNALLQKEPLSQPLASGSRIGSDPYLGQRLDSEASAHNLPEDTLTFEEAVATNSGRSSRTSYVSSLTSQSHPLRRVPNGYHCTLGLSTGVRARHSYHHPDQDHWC", "assay": "radioligand"}, "[2]": {"target": "N-type calcium channel (Rattus norvegicus) (UniProt Q02294)", "assay": "radioligand", "remark": "listed apart in the source"}},
  "note": "Several values for one entry are separate records, joined by “and”; a condition that tells them apart may be missing. Equal values may be shown once. Read-outs that look alike come from different tables or passages of the source.",
  "data": [
    {"substance": "ziconotide (omega-conotoxin MVIIA) (from UniProt P05484)", "values": [
      {"measurement": "Kd", "setting": "[1]", "result": "1.1 pM and 9 pM"},
      {"measurement": "Ki", "setting": "[1]", "result": 1, "unit": "pM"},
      {"measurement": "Kd", "setting": "[2]", "result": "7 pM and 18 pM"}
    ]}
  ]
}
